Substrate in the data set: Nc1ncnc2c1ncn2[C@@H]1O[C@H](COP(=O)(O)OP(=O)(O)OP(=O)(O)OP(=O)(O)OC[C@H]2O[C@@H](n3cnc4c(N)ncnc43)[C@H](O)[C@@H]2O)[C@@H](O)[C@H]1O
Put plainly: luciferase bioluminescence assay of liberated ATP. The format is biochemical, Chlamydia trachomatis. Particulars: 5.0 mM MgCl2, 100 mM Tris-HCl pH 7.5, room temperature.

B1: CT771 (Chlamydia trachomatis L2/434/Bu) (protein)
chain: MMKTKHEYSFGVIPIRFFGTPDRSTLKACFICHTDGKHWGFPKGHAEEKEGPQEAAERELVEETGLGIVNFFPKIFVENYSFNDKEEIFVRKEVTYFLAEVKGEVHADPDEICDVQWLSFQEGLRLLNFPEIRNIVTEADKFVQSYLFAS
In the case of B1, the Km amounted to 333 ± 27 µM and the kcat came to 3.25 ± 0.1 s⁻¹.

The values are drawn from paper PMC3956076.
